Here are results for four molecules from patent US20080213277A1.

The target of assay [1] is C1-C8, C3-C6 hepcidin variant (human). Briefly: BIAcore: 1 nM antibody preincubated with 10 nM of this hepcidin form in solution, then run over immobilized rhHepc surface; % = free antibody still binding the surface (low % = strong binding to the solution form). (In general: SPR reads the build-up and loss of mass on a sensor chip optically.)
Assay [2] concerns the target linear hepcidin variant (human). The assay is described as above.

B1: murine anti-human hepcidin monoclonal antibody Ab43 (antibody, V domains shown)
VH: QIQLVQSGPELKKPGETVKISCKASGYTFTTYGMSWVKQAPGKGLKWMGWINTYSGVPTYADDFKGRFAFSLETSASTAYLQINNLKNEDTATYFCASLWYYGRAFDYWGQGTTLTVSS
VL: NIVLTQSPASLAVSLGQRATISCRASESVDSYGNSFMHWYQQKPGQPPKLLIYLASNLESGVPARFSGSGSRTDFTLTIDPVEADDAATYYCQQNNEDRTFGGGTKLEIK
On to B1, for which the Binding to Hepcidin Surface (%) in assay [1] was determined as 25%; in assay [2] it was 100%.

B2: murine anti-human hepcidin monoclonal antibody 2.7 (antibody, V domains shown)
VH: QIQLVQSGPELKKPGETVKISCKASGYTFTTYGMSWVKQAPGKGLKWMGWINTYSGVPTYADDFKGRFAFSLETSASTAYLQINNLKNEDTATYFCGRDHYYGEVAYWGQGTLVTVSA
VL: DIVLTQSPASLAVSLGQRATISCRASESVDSYGNSFMHWYQQKPGQPPKLLIYRASNLESGIPARFSGSGSRTDFTLTINPVEADDVATYYCHQSNEEYTFGGGTKLEIK
Consider B2, for which the Binding to Hepcidin Surface (%) in assay [1] was determined as 3%; in assay [2] it was 100%.

B3: murine anti-human hepcidin monoclonal antibody 2.41 (antibody, V domains shown)
VH: QIQLVQSGPELKKPGETVKISCKASGYTFTTYGMSWVKQAPGKGLKWMGWINTSSGVPTYADDFMGRFAFSLETSASTAYLQINNLKNEDTATYFCARDRYYGEVAYWGQGTLVTVSA
VL: DIVLTQSPASLAVSLGQRATISCRASESVDSFGNSFMHWYQLKPGQPPKLLIYRASNLESGIPARFSGSGSRTDFTLTINPVEADDVAIYYCQQSNEEYTFGGGTKLEIK
Consider B3, for which the results for the Binding to Hepcidin Surface (%) in assay [1] and in assay [2] were 1% and 99%, respectively.

B4: rat anti-human hepcidin monoclonal antibody R9 (antibody, V domains shown)
VH: QVTLKESGPGILQPSQTLSLTCSFSGFSLSTSGICVSWIRQPSGKGLEWLATICWEDSKGYNPSLKNRLTISKDTSNNQAFLKITSVDTADTAIYYCARPLNYGGYSELELDYWGQGVMVTVSS
VL: DIQMTQSPSLLSASVGDRVTLSCKASQNIYKYLNWYQQKLGEAPKLLIYYTNSLQTGIPSRFSGSGSGTDFTLTISSLQPEDVATYYCYQYNSGPTFGAGTKLELK
With B4, the Binding to Hepcidin Surface (%) in assay [1] stood at 63%; in assay [2] it was 100%.
